No end group written: not given here.

Ratio Absorbance 450 conjugate/Absorbance 450 reference and ratio IC50sample/IC50 Compound 1 data for 4 molecules are collected here from patent US11896642.

In assay [1] the target is biotin labeled PDGF-BB (R&D Systems) (UniProt P01127). Description: competitive ELISA: biotin PDGF-BB pre-incubated with conjugate at 1 mg/mL, added to plate-coated PDGF-Rβ Fc; A450 against reference Compound 1 (higher = less inhibition).
The target of assay [2] is Rat tail monomeric collagen I (Corning) (rat) (UniProt P02454). Description: competitive ELISA on plate-coated rat tail collagen I, competitor biotin Compound 1B; IC50 against that of Compound 1. In general terms: ELISA stands for enzyme-linked immunosorbent assay.

UniProt P01127, sequence (P01127 82-190): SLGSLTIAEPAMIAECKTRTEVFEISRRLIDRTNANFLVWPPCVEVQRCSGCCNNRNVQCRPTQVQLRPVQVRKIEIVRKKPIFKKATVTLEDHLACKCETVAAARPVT

B1: HA108 backbone HA, 20PM (peptide)
peptide: GQLYKSILYGSGSGSRR
modifications: not fully specified (C-terminus); also: several peptides per HA backbone, peptide load 20
For B1, in assay [1], the ratio Absorbance 450 conjugate/Absorbance 450 reference amounted to 16.3. Besides, the ratio IC50sample/IC50 Compound 1 in assay [2] is 2.82.

B2: HA108 backbone HA, 50PM (peptide)
peptide: GQLYKSILYGSGSGSRR
modifications: not fully specified (C-terminus); also: several peptides per HA backbone, peptide load 50
As for B2, the ratio Absorbance 450 conjugate/Absorbance 450 reference in assay [1] is 9.31. In addition, the ratio IC50sample/IC50 Compound 1 in assay [2] is 7.49.

B3: HA108 backbone HA, 10PM (peptide)
peptide: GQLYKSILYGSGSGSRR
modifications: not fully specified (C-terminus); also: several peptides per HA backbone, peptide load 10
In the case of B3, the ratio Absorbance 450 conjugate/Absorbance 450 reference in assay [1] was 17. Besides, the ratio IC50sample/IC50 Compound 1 in assay [2] worked out at 14.8.

B4: HA108 backbone HA, 30PM (peptide)
peptide: GQLYKSILYGSGSGSRR
modifications: not fully specified (C-terminus); also: several peptides per HA backbone, peptide load 30
B4: the ratio Absorbance 450 conjugate/Absorbance 450 reference in assay [1] was 14.2. In addition, in assay [2], the ratio IC50sample/IC50 Compound 1 is 13.4.
